In the assay the target is T1, LexA protein expressed from pBTM117c (UniProt P0A7C2 1-202).
T1 construct: range 1-220
T1 sequence (looked up): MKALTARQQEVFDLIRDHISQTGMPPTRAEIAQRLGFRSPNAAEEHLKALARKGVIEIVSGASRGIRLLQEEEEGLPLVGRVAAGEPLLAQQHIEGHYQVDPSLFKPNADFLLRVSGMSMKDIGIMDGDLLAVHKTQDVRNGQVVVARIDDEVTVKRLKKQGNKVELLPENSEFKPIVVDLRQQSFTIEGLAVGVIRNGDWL
Nature of the assay: yeast two-hybrid in L40cc, growth on SD-leu-trp-his and β-galactosidase membrane assay. The source says:
Detection of Clones Expressing Known Interacting Proteins From False Positives Using the Improved Two-hybrid System Pairs of the yeast two-hybrid plasmids pBTM117cSIM1 & pGAD427-ARNT, pBTM117c & pGAD427 and pBTM117c-HIP1 & pGAD427 were transformed into the yeast strain L40cc, and Trp+Leu+ transformants that contained at least one of each of the two plasmids were selected on SD-leu-trp plates. Two transformants from each transformation were investigated for the presence of protein-protein interactions by testing the ability of the yeast cells to grow on SD-leu-trp, SD-leu-trp-his, SD-leu+CAN and SD-trp+CHX plates and by the β-galactosidase membrane assay (Breeden and Nasmyth, 1985). […] After selection of the yeast strains harboring the different combinations of the two-hybrid plasmids on SD-leu+CAN and SD-trp+CHX the resulting strains were also analyzed by the β-galactosidase assay. After incubating the membrane containing all three strains on SD-trp+CHX medium only progeny of the yeast strain that originally harbored both the plasmids pBTM117c-HIP1 & pGAD427 yet which had lost the pGAD427 plasmid through counterselection turned blue after incubating in X-Gal solution. […]

B1: GAL4ad protein expressed from pGAD427 (other, yeast, UniProt P04386 768-881, looked up)
chain: ANFNQSGNIADSSLSFTFTNSSNGPNLITTQTNSQALSQPIASSNVHDNFMNNEITASKIDDGNNSKPLSPGWTDQTAYNAFGITTGMFNTTTMDDVYNYLFDDEDTPPNPKKE
notes: range 768-881
As to B1, the binding result is given as “no binding”.

Source of the values: US6664048 (MAX PLANCK GESELLSCHAFT ZUR FURDERUNG DER WISSENSCHAFTEN E V, dated 2003).
